# Results taken from patent US20230406885A1, “CYCLIC PEPTIDES FOR TRAPPING INTERLEUKIN-1 BETA” (MERCK SHARP & DOHME LLC, priority 2022, published 2023).
# *1 amine or outer side, *2 acyl side, *3 side chain or, on linkers, in order; H or OH if unused. [ ]: non-standard residue; d: D form. 3AzaPhe4AcPip = (S)-3-(6-(4-acetylpiperazin-1-yl)pyridin-3-yl)-2-aminopropanoic acid, CC(=O)N1CCN(c2ccc(C[C@H](N[*:1])C(=O)[*:2])cn2)CC1; Pro(trans-4-NH2) = O=C([C@@H]1C[C@@H](N[*:3])CN1[*:1])[*:2]; Trp(βS-Me,4-F) = C[C@@H](c1c[nH]c2cccc(F)c12)[C@H](N)C(=O)O; Bip(4'-COOH) = N[C@@H](Cc1ccc(-c2ccc(C(=O)O)cc2)cc1)C(=O)O; Phe(3-CH2NH2) = O=C([C@H](Cc1cccc(CN[*:3])c1)N[*:1])[*:2]; mBip = (S)-2-amino-3-(3-phenylphenyl)propanoic acid; Phe(3-allyloxy) = C=CCOc1cccc(C[C@H](N)C(=O)O)c1; Phe(4-COOH) = N[C@@H](Cc1ccc(C(=O)O)cc1)C(=O)O; hTyr = N[C@@H](CCc1ccc(O)cc1)C(=O)O; dDab = NCC[C@@H](N)C(=O)O; dNMeA = CN[C@H](C)C(=O)O; Nva = CCC[C@H](N)C(=O)O
# B1: SEQ ID NO: 70 (peptide)
# peptide: cyclo([Bip(4'-COOH)]W[Phe(4-COOH)]G[Pro(trans-4-NH2)][Trp(βS-Me,4-F)]D[dNMeA]G[Bip(4'-COOH)]KLG[hTyr])
# SMILES: CC(C)C[C@@H]1NC(=O)[C@H](CCCCN)NC(=O)[C@H](Cc2ccc(-c3ccc(C(=O)O)cc3)cc2)NC(=O)CNC(=O)[C@@H](C)N(C)C(=O)[C@H](CC(=O)O)NC(=O)[C@H]([C@@H](C)c2c[nH]c3cccc(F)c23)NC(=O)[C@@H]2C[C@@H](N)CN2C(=O)CNC(=O)[C@H](Cc2ccc(C(=O)O)cc2)NC(=O)[C@H](Cc2c[nH]c3ccccc23)NC(=O)[C@H](Cc2ccc(-c3ccc(C(=O)O)cc3)cc2)NC(=O)[C@H](CCc2ccc(O)cc2)NC(=O)CNC1=O
# B2: SEQ ID NO: 72 (peptide)
# peptide: cyclo([Bip(4'-COOH)]W[Phe(4-COOH)]G[Pro(trans-4-NH2)][Trp(βS-Me,4-F)]D[dNMeA]G[Bip(4'-COOH)]KS[dA][hTyr])
# SMILES: C[C@@H]1C(=O)NCC(=O)N[C@@H](Cc2ccc(-c3ccc(C(=O)O)cc3)cc2)C(=O)N[C@@H](CCCCN)C(=O)N[C@@H](CO)C(=O)N[C@H](C)C(=O)N[C@@H](CCc2ccc(O)cc2)C(=O)N[C@@H](Cc2ccc(-c3ccc(C(=O)O)cc3)cc2)C(=O)N[C@@H](Cc2c[nH]c3ccccc23)C(=O)N[C@@H](Cc2ccc(C(=O)O)cc2)C(=O)NCC(=O)N2C[C@H](N)C[C@H]2C(=O)N[C@@H]([C@@H](C)c2c[nH]c3cccc(F)c23)C(=O)N[C@@H](CC(=O)O)C(=O)N1C
# B3: SEQ ID NO: 71 (peptide)
# peptide: cyclo([Bip(4'-COOH)]W[Phe(4-COOH)]G[Pro(trans-4-NH2)][Trp(βS-Me,4-F)]D[dNMeA]G[Bip(4'-COOH)]K[Nva][dA][hTyr])
# SMILES: CCC[C@@H]1NC(=O)[C@H](CCCCN)NC(=O)[C@H](Cc2ccc(-c3ccc(C(=O)O)cc3)cc2)NC(=O)CNC(=O)[C@@H](C)N(C)C(=O)[C@H](CC(=O)O)NC(=O)[C@H]([C@@H](C)c2c[nH]c3cccc(F)c23)NC(=O)[C@@H]2C[C@@H](N)CN2C(=O)CNC(=O)[C@H](Cc2ccc(C(=O)O)cc2)NC(=O)[C@H](Cc2c[nH]c3ccccc23)NC(=O)[C@H](Cc2ccc(-c3ccc(C(=O)O)cc3)cc2)NC(=O)[C@H](CCc2ccc(O)cc2)NC(=O)[C@@H](C)NC1=O
# B4: SEQ ID NO: 73 (peptide)
# peptide: cyclo([Bip(4'-COOH)]W[Phe(4-COOH)]G[Pro(trans-4-NH2)][Trp(βS-Me,4-F)]D[dNMeA]G[Bip(4'-COOH)][Phe(3-CH2NH2)]L[dA][hTyr])
# SMILES: CC(C)C[C@@H]1NC(=O)[C@H](Cc2cccc(CN)c2)NC(=O)[C@H](Cc2ccc(-c3ccc(C(=O)O)cc3)cc2)NC(=O)CNC(=O)[C@@H](C)N(C)C(=O)[C@H](CC(=O)O)NC(=O)[C@H]([C@@H](C)c2c[nH]c3cccc(F)c23)NC(=O)[C@@H]2C[C@@H](N)CN2C(=O)CNC(=O)[C@H](Cc2ccc(C(=O)O)cc2)NC(=O)[C@H](Cc2c[nH]c3ccccc23)NC(=O)[C@H](Cc2ccc(-c3ccc(C(=O)O)cc3)cc2)NC(=O)[C@H](CCc2ccc(O)cc2)NC(=O)[C@@H](C)NC1=O
# B5: SEQ ID NO: 7 (peptide)
# peptide: cyclo([3AzaPhe4AcPip]W[Phe(4-COOH)]G[Pro(trans-4-NH2)][Trp(βS-Me,4-F)]D[dNMeA]G[Bip(4'-COOH)]KL[dDab][hTyr])
# SMILES: CC(=O)N1CCN(c2ccc(C[C@@H]3NC(=O)[C@H](CCc4ccc(O)cc4)NC(=O)[C@@H](CCN)NC(=O)[C@H](CC(C)C)NC(=O)[C@H](CCCCN)NC(=O)[C@H](Cc4ccc(-c5ccc(C(=O)O)cc5)cc4)NC(=O)CNC(=O)[C@@H](C)N(C)C(=O)[C@H](CC(=O)O)NC(=O)[C@H]([C@@H](C)c4c[nH]c5cccc(F)c45)NC(=O)[C@@H]4C[C@@H](N)CN4C(=O)CNC(=O)[C@H](Cc4ccc(C(=O)O)cc4)NC(=O)[C@H](Cc4c[nH]c5ccccc45)NC3=O)cn2)CC1
# B6: SEQ ID NO: 76 (peptide)
# peptide: cyclo([Bip(4'-COOH)]W[Phe(4-COOH)]G[Pro(trans-4-NH2)][Trp(βS-Me,4-F)]D[dNMeA]G[Bip(4'-COOH)][Phe(3-allyloxy)]L[dA][hTyr])
# SMILES: C=CCOc1cccc(C[C@@H]2NC(=O)[C@H](Cc3ccc(-c4ccc(C(=O)O)cc4)cc3)NC(=O)CNC(=O)[C@@H](C)N(C)C(=O)[C@H](CC(=O)O)NC(=O)[C@H]([C@@H](C)c3c[nH]c4cccc(F)c34)NC(=O)[C@@H]3C[C@@H](N)CN3C(=O)CNC(=O)[C@H](Cc3ccc(C(=O)O)cc3)NC(=O)[C@H](Cc3c[nH]c4ccccc34)NC(=O)[C@H](Cc3ccc(-c4ccc(C(=O)O)cc4)cc3)NC(=O)[C@H](CCc3ccc(O)cc3)NC(=O)[C@@H](C)NC(=O)[C@H](CC(C)C)NC2=O)c1
# B7: SEQ ID NO: 74 (peptide)
# peptide: cyclo([Bip(4'-COOH)]W[Phe(4-COOH)]G[Pro(trans-4-NH2)][Trp(βS-Me,4-F)]D[dNMeA]G[Bip(4'-COOH)][Phe(3-CH2NH2)]S[dA][hTyr])
# SMILES: C[C@@H]1C(=O)NCC(=O)N[C@@H](Cc2ccc(-c3ccc(C(=O)O)cc3)cc2)C(=O)N[C@@H](Cc2cccc(CN)c2)C(=O)N[C@@H](CO)C(=O)N[C@H](C)C(=O)N[C@@H](CCc2ccc(O)cc2)C(=O)N[C@@H](Cc2ccc(-c3ccc(C(=O)O)cc3)cc2)C(=O)N[C@@H](Cc2c[nH]c3ccccc23)C(=O)N[C@@H](Cc2ccc(C(=O)O)cc2)C(=O)NCC(=O)N2C[C@H](N)C[C@H]2C(=O)N[C@@H]([C@@H](C)c2c[nH]c3cccc(F)c23)C(=O)N[C@@H](CC(=O)O)C(=O)N1C
# B8: SEQ ID NO: 69 (peptide)
# peptide: cyclo([Bip(4'-COOH)]W[Phe(4-COOH)]G[Pro(trans-4-NH2)][Trp(βS-Me,4-F)]D[dNMeA]G[Bip(4'-COOH)]KL[dS][hTyr])
# SMILES: CC(C)C[C@@H]1NC(=O)[C@H](CCCCN)NC(=O)[C@H](Cc2ccc(-c3ccc(C(=O)O)cc3)cc2)NC(=O)CNC(=O)[C@@H](C)N(C)C(=O)[C@H](CC(=O)O)NC(=O)[C@H]([C@@H](C)c2c[nH]c3cccc(F)c23)NC(=O)[C@@H]2C[C@@H](N)CN2C(=O)CNC(=O)[C@H](Cc2ccc(C(=O)O)cc2)NC(=O)[C@H](Cc2c[nH]c3ccccc23)NC(=O)[C@H](Cc2ccc(-c3ccc(C(=O)O)cc3)cc2)NC(=O)[C@H](CCc2ccc(O)cc2)NC(=O)[C@@H](CO)NC1=O
# Target: Recombinant human IL-1β (BioLegend 579404) (human, UniProt P01584 117-269)
# Assay: cell-based or functional assay
row,MRC5 IC50 [nM],Binder
1,0.0973,B1
2,0.107,B2
3,0.0926,B3
4,0.0509,B4
5,0.135,B5
6,0.122,B6
7,0.165,"cyclo([Bip(4'-COOH)]W[Phe(4-COOH)]G[Pro(trans-4-NH2)][Trp(βS-Me,4-F)]D[dNMeA]G[Bip(4'-COOH)][mBip]L[dA][hTyr]) [SEQ ID NO: 75]"
8,0.296,B7
9,0.334,B8
